Experimental data published in patent publication US20220251222A1 (Johns Hopkins, published 2022).

Columns and labels:
[1] = molecular target: T1, IL-6Rα expressed on lentivirally transduced HEK 293T cells (UniProt P08887 20-468, limits assumed); test: flow cytometry binding titration on IL-6R+/IL-8R- HEK 293T cells, detected with FITC anti-human IgG1
T1 construct: whole, on cells; also called IL-6Rα^+ cells; IL-6Rα^+/IL-8R^- HEK 293T cells
T1 sequence (looked up): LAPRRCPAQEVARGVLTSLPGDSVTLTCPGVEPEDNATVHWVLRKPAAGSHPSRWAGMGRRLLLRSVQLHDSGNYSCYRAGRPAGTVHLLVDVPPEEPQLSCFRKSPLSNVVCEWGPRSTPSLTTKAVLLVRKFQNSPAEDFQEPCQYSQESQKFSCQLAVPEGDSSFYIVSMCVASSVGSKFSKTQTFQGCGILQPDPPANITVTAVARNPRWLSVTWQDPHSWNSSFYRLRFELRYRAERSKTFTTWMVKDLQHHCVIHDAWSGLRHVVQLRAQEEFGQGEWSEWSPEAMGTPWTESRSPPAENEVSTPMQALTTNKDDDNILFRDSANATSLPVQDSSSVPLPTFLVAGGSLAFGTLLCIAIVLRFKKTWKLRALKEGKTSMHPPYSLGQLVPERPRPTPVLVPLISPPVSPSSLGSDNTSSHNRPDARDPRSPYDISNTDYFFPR
Description: (§1) HEK 293T cells were cultured in Dulbecco's modified Eagle's medium (DMEM, Mediatech) supplemented with 10% (Hyclone), 2 mM L-glutamine and 100 U/mL penicillin-streptomycin (Gibco). For surface binding assays, IL-6Rα⁺/IL-8R⁻, IL-6Rα⁻/IL-8R⁺, IL-6Rα⁺/IL-8R⁺, and […] HEK 293T cells were trypsinized for detachment, resuspended in PBSA, and then aliquoted into 96-well plates (1×10⁵ cells per well). Cells were incubated with titrations of various monoclonal or bispecific antibodies for 2 hr at 4° C. with rotation. Cells were then washed and incubated with a 1:50 dilution of fluorescein isothiocyanate (FITC)-conjugated anti-human IgG1 antibody (Sigma-Aldrich, Clone 8c/6-39) in PBSA for 15 min at 4° C. After a final wash, cells were resuspended in PBSA and analyzed on a CytoFLEX flow cytometer (Beckman Coulter). Binding isotherms were fitted to a first-order logistic model and KD values were calculated using GraphPad Prism data analysis software. Mean fluorescence intensity (MFI) of unstimulated cells was subtracted. […]
(§2) To determine whether engineered bispecific binding agents BS1 and BS2 specifically engage target antigens in a physiologically relevant context, antibody binding to IL-6Rα⁺/IL-8R⁻, IL-6Rα⁻/IL-8R⁺, IL-6Rα⁺/IL-8R⁺, and IL-6Rα⁻/IL-8R⁻ lentivirally transduced HEK 293T cells was measured via flow cytometry. […]

[2] = molecular target: T1, IL-6Rα expressed on lentivirally …; test: flow cytometry titration on IL-6Rα+/IL-8R+ HEK 293T cells; IL-6Rα+/IL-8R+ 293T cells (FIG. 7C)
Description: as §1, §2

[3] = molecular target: T2, IL-8RB expressed on lentivirally transduced HEK 293T cells (UniProt P25025 1-360, limits assumed); test: flow cytometry binding titration on IL-6R-/IL-8R+ HEK 293T cells, detected with FITC anti-human IgG1
T2 construct: whole, on cells; also called IL-8R^+ cells; IL-6Rα^-/IL-8R^+ HEK 293T cells
T2 sequence (looked up): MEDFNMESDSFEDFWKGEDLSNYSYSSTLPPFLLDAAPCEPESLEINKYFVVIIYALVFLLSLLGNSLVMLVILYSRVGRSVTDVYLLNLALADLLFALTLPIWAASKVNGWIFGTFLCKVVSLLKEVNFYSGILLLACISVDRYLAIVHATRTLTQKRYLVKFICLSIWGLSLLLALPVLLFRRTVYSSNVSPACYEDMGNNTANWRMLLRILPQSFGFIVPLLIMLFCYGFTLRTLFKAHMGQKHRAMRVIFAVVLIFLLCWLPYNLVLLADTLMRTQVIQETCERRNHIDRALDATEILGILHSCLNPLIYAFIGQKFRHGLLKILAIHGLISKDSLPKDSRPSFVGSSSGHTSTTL
Description: as §1, §2

[4] = molecular target: T1, IL-6Rα expressed on lentivirally …; test: flow cytometry titration on IL-6Rα+/IL-8R- HEK 293T cells; IL-6Rα+/IL-8R- 293T cells (FIG. 7A)
Description: as §1, §2

[5] = molecular target: T2, IL-8RB expressed on lentivirally …; test: flow cytometry titration on IL-6Rα-/IL-8R+ HEK 293T cells; IL-6Rα-/IL-8R+ 293T cells (FIG. 7B)
Description: as §1, §2

[6] = molecular target: T3, IL-6Rα and IL-8R co-expressed on IL-6Rα^+/IL-8R^+ HEK 293T cells (UniProt P08887 20-468; P25025 1-360, limits assumed); test: flow cytometry titration on IL-6Rα+/IL-8R+ HEK 293T cells (both targets present); IL-6Rα+/IL-8R+ 293T cells, both targets present (FIG. 7C)
T3 construct: whole, on cells; Not a complex: two separate receptors on the same cell; also called IL-6Rα^+/IL-8R^+ 293T cells
T3 sequence (looked up) 1: T1 sequence (looked up)
T3 sequence (looked up) 2: T2 sequence (looked up)
Description: as §1, §2

B1: tocilizumab, recombinant monoclonal hIgG1 (anti-IL-6Rα) (antibody, V domains shown)
VH: EVQLQESGPGLVRPSQTLSLTCTVSGYSITSDHAWSWVRQPPGRGLEWIGYISYSGITTYNPSLKSRVTMLRDTSKNQFSLRLSSVTAADTAVYYCARSLARTTAMDYWGQGSLVTVSS
VL: DIQMTQSPSSLSASVGDRVTITCRASQDISSYLNWYQQKPGKAPKLLIYYTSRLHSGVPSRFSGSGSGTDFTFTISSLQPEDIATYYCQQGNTLPYTFGQGTKVEIK
notes: also called anti-IL-6Rα antibody
Which results are given for B1?
EC50 (read off the curve) [1]: ~3 nM; Kd [2]: 3.1 nM; binding result [3]: no binding (tested: 1e-6 M)

B2: BS2 bispecific antibody (scFv-IgG fusion: 10H2 IgG with tocilizumab scFv on the light chains) (bispecific antibody)
heavy: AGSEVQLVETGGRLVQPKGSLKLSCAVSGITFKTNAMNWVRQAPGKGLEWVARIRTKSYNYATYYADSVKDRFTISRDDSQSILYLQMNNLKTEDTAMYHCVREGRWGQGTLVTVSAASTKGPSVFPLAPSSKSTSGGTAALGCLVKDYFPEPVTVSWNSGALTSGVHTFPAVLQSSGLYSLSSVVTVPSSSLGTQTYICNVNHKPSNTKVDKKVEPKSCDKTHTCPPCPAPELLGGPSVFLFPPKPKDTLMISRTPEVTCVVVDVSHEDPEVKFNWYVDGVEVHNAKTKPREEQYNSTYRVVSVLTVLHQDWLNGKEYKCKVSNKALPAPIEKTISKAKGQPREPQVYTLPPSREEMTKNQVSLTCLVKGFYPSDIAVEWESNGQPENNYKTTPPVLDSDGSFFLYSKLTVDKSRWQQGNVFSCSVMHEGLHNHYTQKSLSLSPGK
light: AGSQAVVTQESALTTSPGETVTLTCRSSTGAVTTSNYANWVQEKPDHLFTGLIGGTNNRPPGVPARFSGSLIGDKAALTITGAQIEDEAIYFCALWYSNHLVFGGGTKLTVLRTVAAPSVFIFPPSDEQLKSGTASVVCLLNNFYPREAKVQWKVDNALQSGNSQESVTEQDSKDSTYSLSSTLTLSKADYEKHKVYACEVTHQGLSSPVTKSFNRGECGGGGSGGGGSEVQLQESGPGLVRPSQTLSLTCTVSGYSITSDHAWSWVRQPPGRGLEWIGYISYSGITTYNPSLKSRVTMLRDTSKNQFSLRLSSVTAADTAVYYCARSLARTTAMDYWGQGSLVTVSSGGGGSGGGGSGGGGSDIQMTQSPSSLSASVGDRVTITCRASQDISSYLNWYQQKPGKAPKLLIYYTSRLHSGVPSRFSGSGSGTDFTFTISSLQPEDIATYYCQQGNTLPYTFGQGTKVEIK
notes: Human IgG1-based
What does the source list for B2?
Kd [4]: 19 nM; Kd [5]: 3.5 nM; Kd [6]: 3.4 nM
